Usually stoichiometry N stands for the number of molecules, sites or subunits per partner or assembly.

T1: LIS1 (full length human) (human, UniProt P43034 1-410)
T1 construct: LIS1, human, full length, UniProt P43034 (printed for the AlphaFold2 prediction); A version with an additional C-terminal SNAPf tag also exists; also called wild-type LIS1; source: Sf9, purified (IgG Sepharose, TEV, SEC); not shown: ZZ, N-terminal, cleaved
T1 sequence (looked up): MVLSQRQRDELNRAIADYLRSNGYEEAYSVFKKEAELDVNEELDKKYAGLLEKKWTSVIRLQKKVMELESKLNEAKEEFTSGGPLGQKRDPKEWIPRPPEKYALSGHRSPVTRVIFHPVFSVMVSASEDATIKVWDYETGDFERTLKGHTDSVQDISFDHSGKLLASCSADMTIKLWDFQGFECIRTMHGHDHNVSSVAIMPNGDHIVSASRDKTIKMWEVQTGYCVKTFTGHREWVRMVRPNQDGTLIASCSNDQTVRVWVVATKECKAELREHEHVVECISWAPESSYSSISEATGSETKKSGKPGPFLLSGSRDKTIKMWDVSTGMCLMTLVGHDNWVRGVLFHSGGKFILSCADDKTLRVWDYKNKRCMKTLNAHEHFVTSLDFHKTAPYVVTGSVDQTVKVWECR

T2: mouse JIP3^185-505 (JIP3 residues 186-505) (mouse, UniProt Q9ESN9-5 186-505)
T2 construct: 2CT vector; also called JIP3 fragment containing the Spindly motif and LZII; JIP3 186-505; source: SoluBL21 E. coli, purified (Ni-NTA, TEV, Strep-Tactin, SEC); not shown: His6, N-terminal, cleaved; MBP, N-terminal, cleaved
T2 sequence (looked up): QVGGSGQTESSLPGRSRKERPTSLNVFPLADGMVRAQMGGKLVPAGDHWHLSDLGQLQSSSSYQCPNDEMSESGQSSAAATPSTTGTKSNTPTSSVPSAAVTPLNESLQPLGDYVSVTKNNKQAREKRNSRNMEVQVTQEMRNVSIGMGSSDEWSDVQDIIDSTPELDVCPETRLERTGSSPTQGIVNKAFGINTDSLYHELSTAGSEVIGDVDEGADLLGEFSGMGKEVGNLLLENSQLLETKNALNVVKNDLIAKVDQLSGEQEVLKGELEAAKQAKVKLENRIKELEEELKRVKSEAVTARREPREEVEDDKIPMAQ

T3: mouse JIP3 186-505_L383A/E386A (mouse, UniProt Q9ESN9-5 186-505, L383A | E386A)
T3 construct: JIP3, mouse cDNA, isoform 3a, UniProt Q9ESN9-5, residues 186-505 with L383A and E386A; also called Spindly motif mutant (L383A/E386A); source: SoluBL21 E. coli, purified (Ni-NTA, TEV, Strep-Tactin, SEC); not shown: His6, N-terminal, cleaved; MBP, N-terminal, cleaved
T3 sequence (looked up): T2 sequence (looked up) with L198A, E201A

B1: GST-Psc-DCTN1(residues 350-547)-GFP-6xHis (domain or fragment, human (from the printed UniProt entry), UniProt Q14203-1 350-547, looked up)
chain: GSDGAASSYQLKQLEEQNARLKDALVRMRDLSSSEKQEHVKLQKLMEKKNQELEVVRQQRERLQEELSQAESTIDELKEQVDAALGAEEMVEMLTDRNLNLEEKVRELRETVGDLEAMNEMNDELQENARETELELREQLDMAGARVREAQKRVEAAQETVADYQQTIKKYRQLTAHLQDVNRELTNQQEASVERQQQ
notes: DCTN1/p150glued, UniProt Q14203-1, residues 350-547 (CC1B fragment); also called CC1B; p150-CC1B; source: SoluBL21 E. coli, purified (Ni-NTA, glutathione resin, SEC)
B2: JIP3^1-560 (domain or fragment, human, UniProt Q9UPT6-1 1-560, looked up)
chain: MMEIQMDEGGGVVVYQDDYCSGSVMSERVSGLAGSIYREFERLIHCYDEEVVKELMPLVVNVLENLDSVLSENQEHEVELELLREDNEQLLTQYEREKALRRQAEEKFIEFEDALEQEKKELQIQVEHYEFQTRQLELKAKNYADQISRLEERESEMKKEYNALHQRHTEMIQTYVEHIERSKMQQVGGNSQTESSLPGRRKERPTSLNVFPLADGTVRAQIGGKLVPAGDHWHLSDLGQLQSSSSYQCPQDEMSESGQSSAAATPSTTGTKSNTPTSSVPSAAVTPLNESLQPLGDYGVGSKNSKRAREKRDSRNMEVQVTQEMRNVSIGMGSSDEWSDVQDIIDSTPELDMCPETRLDRTGSSPTQGIVNKAFGINTDSLYHELSTAGSEVIGDVDEGADLLGEFSVRDDFFGMGKEVGNLLLENSQLLETKNALNVVKNDLIAKVDQLSGEQEVLRGELEAAKQAKVKLENRIKELEEELKRVKSEAIIARREPKEEAEDVSSYLCTESDKIPMAQRRRFTRVEMARVLMERNQYKERLMELQEAVRWTEMIRASRE
notes: JIP3, human, UniProt Q9UPT6-1, residues 1-560, codon optimised for Sf9; The bacterial 2CT version would carry a C-terminal Strep-tag II; source: Sf9, purified (IgG Sepharose, TEV, SEC); not shown: His6, N-terminal, cleaved; ZZ, N-terminal, cleaved
B3: LIS1-N (residues 1-90) (domain or fragment, human, UniProt P43034 1-90, looked up)
chain: MVLSQRQRDELNRAIADYLRSNGYEEAYSVFKKEAELDVNEELDKKYAGLLEKKWTSVIRLQKKVMELESKLNEAKEEFTSGGPLGQKRD
notes: LIS1, human, residues 1-90 (LisH domain and coiled coil); source: Sf9, purified (IgG Sepharose, TEV, SEC); not shown: ZZ, N-terminal, cleaved
B4: LIS1^mut (natural protein, human, UniProt P43034 1-410, looked up)
chain: MVASQEARDELNRAIADYLRSNGYEEAYSVFKKEAELDVNEELDKEYAGLLEEEWAAVAELAEEVMELRSKLNEAKEEFTSGGPLGQKRDPKEWIPRPPEKYALSGHRSPVTRVIFHPVFSVMVSASEDATIKVWDYETGDFERTLKGHTDSVQDISFDHSGKLLASCSADMTIKLWDFQGFECIRTMHGHDHNVSSVAIMPNGDHIVSASRDKTIKMWEVQTGYCVKTFTGHREWVRMVRPNQDGTLIASCSNDQTVRVWVVATKECKAELREHEHVVECISWAPESSYSSISEATGSETKKSGKPGPFLLSGSRDKTIKMWDVSTGMCLMTLVGHDNWVRGVLFHSGGKFILSCADDKTLRVWDYKNKRCMKTLNAHEHFVTSLDFHKTAPYVVTGSVDQTVKVWECR
notes: The last substitution is printed as E6 9R and read as E69R; source: Sf9, purified (IgG Sepharose, TEV, SEC); not shown: ZZ, N-terminal, cleaved
B5: MBP-DIC-N (dynein intermediate chain 1-76) (domain or fragment, human, UniProt Q13409 1-76, looked up)
chain: MSDKSELKAELERKKQRLAQIREEKKRKEEERKKKETDQKKEAVAPVQEESDLEKKRREAEALLQSMGLTPESPIV
notes: dynein intermediate chain, residues 1-76; UniProt Q13409 is printed for DIC in the AlphaFold2 predictions; 2CT vector; the general protocol includes a TEV step, but this construct is named and used as MBP-DIC-N on amylose resin; also called DIC-N construct; source: SoluBL21 E. coli, purified; not shown: MBP, N-terminal, kept
B6: GCN4-WD40-SNAP (other, human)
chain: GSGSVKQLEDKVEELLSKNAHLENEVARLKKLVSGGPLGQKRDPKEWIPRPPEKYALSGHRSPVTRVIFHPVFSVMVSASEDATIKVWDYETGDFERTLKGHTDSVQDISFDHSGKLLASCSADMTIKLWDFQGFECIRTMHGHDHNVSSVAIMPNGDHIVSASRDKTIKMWEVQTGYCVKTFTGHREWVRMVRPNQDGTLIASCSNDQTVRVWVVATKECKAELREHEHVVECISWAPESSYSSISEATGSETKKSGKPGPFLLSGSRDKTIKMWDVSTGMCLMTLVGHDNWVRGVLFHSGGKFILSCADDKTLRVWDYKNKRCMKTLNAHEHFVTSLDFHKTAPYVVTGSVDQTVKVWECR
notes: LIS1, human, residues 81-410; source: Sf9, purified (IgG Sepharose, TEV, SEC); not shown: ZZ, N-terminal, cleaved; SNAPf, C-terminal, kept
B7: human Arf6 (12-175_Q67L) (domain or fragment, UniProt P62330 12-175, looked up)
chain: KEMRILMLGLDAAGKTTILYKLKLGQSVTTIPTVGFNVETVTYKNVKFNVWDVGGLDKIRPLWRHYYTGTQGLIFVVDCADRDRIDEARQELHRIINDREMRDAIILIFANKQDLPDAMKPHEIQEKLGLTRIRDRNWYVQPSCATSGDGLYEGLTWLTSNYKS
notes: Arf6, human, residues 12-175 with Q67L; pGEX-6P-1 vector: N-terminal GST, Prescission site, C-terminal 6xHis; source: SoluBL21 E. coli, purified (Ni-NTA, glutathione resin, SEC)

Numbering of substitutions follows the chain as printed. In names and notes the source's numbering stands.

The target in data set [1] is T1, LIS1 (full length human). Briefly: pull-down; GST pull-down on glutathione resin with GST-CC1A/B or CC1B as bait; LIS1, LIS1-N or MBP-DIC-N as prey; GST-PD buffer (50 mM HEPES pH 7.5, 100 mM KCl, 1 mM MgCl2, 1 mM DTT), room temperature; Coomassie-stained SDS-PAGE. The following applies: both partners purified.
For data set [2], the target named is T4, dynactin pointed end complex (ZZ-TEV-Arp11, p62, p25, p27) (human, UniProt Q9NZ32 1-417; Q9UJW0-1 1-460; Q9BTE1 1-182; O00399 1-190).
T4 construct: Arp11, human, subunit of the dynactin pointed end complex; p62, human, isoform A, UniProt Q9UJW0-1; p25, human, subunit of the dynactin pointed end complex; p27, human, subunit of the dynactin pointed end complex; source: pAceBac1 vector; copies: + + +
The data set can be described thus: SEC; pointed end complex and JIP3^1-560 (or its Spindly mutant) mixed 1:1 at 10 μM final in GF150 buffer, 30 min at 4°C, Superose 6 Increase 3.2/300. Particulars: both partners purified. For orientation: In gel filtration, larger molecules generally elute earlier.

Data set [3] has as its target B1. The data set can be described thus: pull-down; GST pull-down on glutathione resin with GST-CC1A/B or CC1B as bait; LIS1, LIS1-N or MBP-DIC-N as prey; GST-PD buffer (50 mM HEPES pH 7.5, 100 mM KCl, 1 mM MgCl2, 1 mM DTT), room temperature; Coomassie-stained SDS-PAGE. The following applies: both partners purified.
Data set [4] deals with the molecule itself. Briefly: SEC-MALS; 70 μL at 1 mg/mL, GF150 buffer, Superdex 200 5/150.
Data set [5] addresses T5, GST-Psc-DCTN1(residues 214-547)-GFP-6xHis (human (from the printed UniProt entry), UniProt Q14203-1 214-547).
T5 construct: DCTN1/p150glued, UniProt Q14203-1, residues 214-547 (CC1 fragment: CC1A and CC1B); also called GST-CC1A/B; CC1A/B; source: SoluBL21 E. coli, purified (Ni-NTA, glutathione resin, SEC); not shown: GST, N-terminal, kept
The data set can be described thus: pull-down; GST pull-down on glutathione resin with GST-CC1A/B or CC1B as bait; LIS1, LIS1-N or MBP-DIC-N as prey; GST-PD buffer (50 mM HEPES pH 7.5, 100 mM KCl, 1 mM MgCl2, 1 mM DTT), room temperature; Coomassie-stained SDS-PAGE. Particulars: both partners purified.

The target in data set [6] is T2, mouse JIP3^185-505 (JIP3 residues …). Briefly: pull-down; pull-downs with mouse JIP3 186-505 constructs, Arf6 and the recombinant pointed end complex (Fig. S3E); purified recombinant proteins; which protein was held on the resin is not told in the text shown. The following applies: both partners purified.
Data set [7] addresses T3, mouse JIP3 186-505_L383A/E386A. The data set is described as above. The following applies: both partners purified.

T4 sequence (Q9NZ32 whole entry, chain 1 of 4, canonical isoform): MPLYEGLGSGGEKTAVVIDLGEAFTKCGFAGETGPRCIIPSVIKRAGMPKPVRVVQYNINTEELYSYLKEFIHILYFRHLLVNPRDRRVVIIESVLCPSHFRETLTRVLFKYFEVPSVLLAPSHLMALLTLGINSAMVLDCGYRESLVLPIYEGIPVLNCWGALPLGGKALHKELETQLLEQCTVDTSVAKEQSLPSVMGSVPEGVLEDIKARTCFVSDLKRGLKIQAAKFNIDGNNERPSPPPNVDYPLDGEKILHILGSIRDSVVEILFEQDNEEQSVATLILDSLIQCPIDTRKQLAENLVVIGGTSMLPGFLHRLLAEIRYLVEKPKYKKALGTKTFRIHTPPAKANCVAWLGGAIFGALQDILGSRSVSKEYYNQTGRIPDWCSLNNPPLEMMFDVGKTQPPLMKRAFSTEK
T4 sequence (Q9UJW0 whole entry, chain 2 of 4, canonical isoform): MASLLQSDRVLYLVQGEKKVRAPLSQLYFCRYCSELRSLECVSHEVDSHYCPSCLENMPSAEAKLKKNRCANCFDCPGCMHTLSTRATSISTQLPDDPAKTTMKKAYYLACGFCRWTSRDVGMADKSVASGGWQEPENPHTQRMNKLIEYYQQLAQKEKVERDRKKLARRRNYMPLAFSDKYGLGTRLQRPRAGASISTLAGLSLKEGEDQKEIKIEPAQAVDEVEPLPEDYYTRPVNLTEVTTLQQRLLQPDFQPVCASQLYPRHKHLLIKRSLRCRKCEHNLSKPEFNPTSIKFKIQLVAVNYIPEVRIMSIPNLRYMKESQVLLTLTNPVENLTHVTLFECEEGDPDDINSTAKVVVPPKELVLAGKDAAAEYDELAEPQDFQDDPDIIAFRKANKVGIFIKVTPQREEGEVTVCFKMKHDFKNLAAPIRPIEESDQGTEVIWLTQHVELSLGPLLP
T4 sequence (Q9BTE1 whole entry, chain 3 of 4, canonical isoform): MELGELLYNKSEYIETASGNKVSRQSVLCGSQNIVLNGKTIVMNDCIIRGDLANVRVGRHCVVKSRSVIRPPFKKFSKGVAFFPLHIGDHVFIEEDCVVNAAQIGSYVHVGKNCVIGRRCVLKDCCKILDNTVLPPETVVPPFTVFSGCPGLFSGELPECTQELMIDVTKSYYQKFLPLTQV
T4 sequence (O00399 whole entry, chain 4 of 4, canonical isoform): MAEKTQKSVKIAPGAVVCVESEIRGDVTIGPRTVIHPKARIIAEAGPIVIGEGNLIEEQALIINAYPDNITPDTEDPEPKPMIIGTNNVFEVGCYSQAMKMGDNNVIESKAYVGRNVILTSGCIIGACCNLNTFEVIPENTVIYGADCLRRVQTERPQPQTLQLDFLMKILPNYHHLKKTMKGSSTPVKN

Regarding B1, the binding result in data set [1] is listed as “binds”.
On to B2, for which the binding result in data set [2] is “binds”.
Regarding B3, the binding result in data set [3] is given as “binds”.
As to B4, the “stoichiometry N” value in data set [4] stood at 2.
As for B5, in data set [5], the binding result is reported as “binds”.
On to B6, for which the “stoichiometry N” value in data set [4] is 2.
With B7, the binding result in data set [6] and in data set [7] was “binds” each time.

Source of the values: paper PMC7615804, “Molecular mechanism of dynein-dynactin complex assembly by LIS1” (Science (New York, N.Y.), 2024).
